27 sequences from the supplement of paper PMC10567573 can be followed below.

± gives the standard deviation.

This series can be described thus: protein stability index of a GFP-peptide fusion (GPS, HEK-293T) (PSI 1-6); higher = more stable. To be noted: c terminus: a fixed tail appended.
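Further: 24-mer peptide tiles fused after GFP, lentivirally expressed, FACS-sorted into six equal bins by GFP/DsRed ratio, decoded by Illumina sequencing, PSI is the read-weighted mean bin number.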

On to YAPEAPYTSPDKLKDIFMFITRQL [PDS5B], for which the protein stability index worked out at 2.59 ± 0.28 (treatment: DMSO) and 1.97 ± 0.34 (treatment: MLN4924 1 uM, 8 h).
For the sequence YCVPRGNRRRFRVRQPILQYRWDM [BEX1], the protein stability index by setting is: (treatment: DMSO) 2.46 ± 0.21; (treatment: MLN4924 1 uM, 8 h) 2.55 ± 0.17.
YDYVREFKRSTGTWHHTKPLLPSD [GAN]: the protein stability index by setting is: (treatment: DMSO) 3.2 ± 0.32; (treatment: MLN4924 1 uM, 8 h) 3.27 ± 0.21.
For YESGYAFLPDLLIFQMVIICLMCV [SMG5], in that order: 3.23 ± 0.32 and 3.16 ± 0.57.
For YGHPAGIDYKTTTILLDGRRVKLQ [RAB40B], in that order: 2.87 ± 0.28 and 3.14 ± 0.11.
The sequence YKREILERVDGRRLVYKFGKNSSG [ELF3] had a protein stability index (treatment: DMSO) of 3.1 ± 0.22 and a protein stability index (treatment: MLN4924 1 uM, 8 h) of 3.21 ± 0.44.
Regarding YKYCDHENAAFKDVALVLTVLLEE [TOR1AIP2], the protein stability index by setting is: (treatment: DMSO) 2.5 ± 0.43; (treatment: MLN4924 1 uM, 8 h) 2.8 ± 0.52.
The like results for YLKSCRRMKKNGMEMTRPTPPHLT [NOL4L] were, in that order, 2.89 ± 0.19 and 2.96 ± 0.25.
In the case of YLTGTINGDPESVASLHWDGGALL [ADAMTS4], the protein stability index stood at 2.88 ± 0.59 (treatment: DMSO) and 3.1 ± 0.32 (treatment: MLN4924 1 uM, 8 h).
For YNALKLFMEMNQKLFDDCTQQFKA [PPP2R5C], in that order: 2.46 ± 0.22 and 2.2 ± 0.24.
The like results for YQELLRVCCCELGVNPDQVEKIRK [ANKRD40] were, in that order, 2.41 ± 0.51 and 2.55 ± 0.22.
Regarding YQLFEELGKGAFSVVRRCVKVLAG [CAMK2A], the protein stability index reads like this: (treatment: DMSO) 2.9 ± 0.64; (treatment: MLN4924 1 uM, 8 h) 2.64 ± 0.39.
The like results for YRDLAGGTGRSAKEQVLRKGTENL [FCHSD1] were, in that order, 4.16 ± 0.18 and 4.2 ± 0.33.
In turn, YRHQRLHTGERPYECTVCKKRFTR [ZNF449] came in with a protein stability index (treatment: DMSO) of 2.75 ± 0.56 and a protein stability index (treatment: MLN4924 1 uM, 8 h) of 3.5 ± 0.53.
For YRIRQVNIYYYLEDDSMSVIEPVV [EFHC1], in that order: 2.87 ± 0.31 and 2.55 ± 0.55.
For YRKKSAEFPDFYDSEEPVSTHQEA [CHGB], in that order: 4.97 ± 0.12 and 5.01 ± 0.32.
For YSAAALQEAMKRLRGAKAFRLPGL [FCHO1], in that order: 2.3 ± 0.076 and 2.42 ± 0.2.
On to YSECIVTVGGEERVSRKPTAAMRC [GAN], for which the protein stability index is 3.56 ± 0.32 (treatment: DMSO) and 3.85 ± 0.66 (treatment: MLN4924 1 uM, 8 h).
In the case of YSIQERRPQLPQVLQHVRLPLLSP [KLHL20], the protein stability index by setting is: (treatment: DMSO) 3.4 ± 0.18; (treatment: MLN4924 1 uM, 8 h) 3.42 ± 0.32.
For YTATEQEMQQQMSLGELCHPVPLS [TRIM14], in that order: 4.26 ± 0.23 and 4.14 ± 0.27.
For the sequence YTGMFTSSPDLDDMKLIILANRLC [RHOBTB2], the protein stability index (treatment: DMSO) was 2.73 ± 0.51 and the protein stability index (treatment: MLN4924 1 uM, 8 h) came to 2.7 ± 0.51.
For YTVRAPVGVAGLISPWNLPLYLLT [ALDH8A1], in that order: 2.49 ± 0.47 and 2.14 ± 0.07.
Turning to YVFFVLAVMEHAESKMYATSPYSD [PTPRD], the protein stability index (treatment: DMSO) came to 3.02 ± 0.82 and the protein stability index (treatment: MLN4924 1 uM, 8 h) worked out at 3.28 ± 0.78.
In the case of YVQEKRDGLKRRQQLEEELLRAKI [RAD54B], the protein stability index is, setting by setting: (treatment: DMSO) 2.71 ± 0.66; (treatment: MLN4924 1 uM, 8 h) 3.38 ± 0.78.
In turn, YWTKYYDFKNPIIEKYLRRQLTKP [OAS1] showed a protein stability index (treatment: DMSO) of 1.94 ± 0.33 and a protein stability index (treatment: MLN4924 1 uM, 8 h) of 2.11 ± 0.19.
On to YYLALLLSLLVMVISPVIQLQPTF [NSDHL], for which the protein stability index worked out at 2.68 ± 0.37 (treatment: DMSO) and 2.91 ± 0.64 (treatment: MLN4924 1 uM, 8 h).
Consider YYVLEPRVVDGTPCSPDSSSVCVQ [ADAMTS4], for which the protein stability index was determined as 3.33 ± 0.35 (treatment: DMSO) and 3.21 ± 0.28 (treatment: MLN4924 1 uM, 8 h).
